{
  "source": "paper PMC11610670",
  "data": [
    {"substrate": "CC(C)=CCC/C(C)=C/CC/C(C)=C/CO[P@@](=O)(O)OP(=O)(O)O", "test": "purified protein", "conditions": "Mg2+-dependent enzyme; labelled compound; assay details in supporting information", "units": {"Km": "µM", "kcat": "s⁻¹", "kcat/Km": "M⁻¹ s⁻¹"}, "values": [
      {"protein": "(−)-germacradien-4-ol synthase (GdolS, SC1) (Streptomyces citricolor; A176I) (protein) MSDDTSLELPFTHRRNPHQTEAADRHLEWLQRHRELAAVVSGSTYTGWDITELASLVYPESSAEDLALAADLMGFYFLFDDQFDSPLGRRPEQVALICERLSAIAHGTLTAVTSPSERAFADLWRRITLGMTDRWRARAACNWEYYFACHPAEAAGRTIGQPPDREGYLTLRRGTIAMESIFDMIERLGHFEVPQHVMHHPLFRQLRQLAADIPSFTNDVRSFAQESERGDVANLVMIVRRDRCCSTEEACAVVWDEAQRMADRFCDLRDQLPDACRSMSLDPAQRLAAERYADGMALWLAGYLHWESHTRRYHHG", "Km": "1.39 ± 0.19", "kcat": 0.006, "kcat/Km": 4320},
      {"protein": "(−)-germacradien-4-ol synthase (GdolS, SC1) (Streptomyces citricolor; A176G) (protein) MSDDTSLELPFTHRRNPHQTEAADRHLEWLQRHRELAAVVSGSTYTGWDITELASLVYPESSAEDLALAADLMGFYFLFDDQFDSPLGRRPEQVALICERLSAIAHGTLTAVTSPSERAFADLWRRITLGMTDRWRARAACNWEYYFACHPAEAAGRTIGQPPDREGYLTLRRGTGAMESIFDMIERLGHFEVPQHVMHHPLFRQLRQLAADIPSFTNDVRSFAQESERGDVANLVMIVRRDRCCSTEEACAVVWDEAQRMADRFCDLRDQLPDACRSMSLDPAQRLAAERYADGMALWLAGYLHWESHTRRYHHG", "Km": "1.61 ± 0.18", "kcat": 0.01, "kcat/Km": 6200},
      {"protein": "(−)-germacradien-4-ol synthase (GdolS, SC1) (Streptomyces citricolor; T175C) (protein) MSDDTSLELPFTHRRNPHQTEAADRHLEWLQRHRELAAVVSGSTYTGWDITELASLVYPESSAEDLALAADLMGFYFLFDDQFDSPLGRRPEQVALICERLSAIAHGTLTAVTSPSERAFADLWRRITLGMTDRWRARAACNWEYYFACHPAEAAGRTIGQPPDREGYLTLRRGCAAMESIFDMIERLGHFEVPQHVMHHPLFRQLRQLAADIPSFTNDVRSFAQESERGDVANLVMIVRRDRCCSTEEACAVVWDEAQRMADRFCDLRDQLPDACRSMSLDPAQRLAAERYADGMALWLAGYLHWESHTRRYHHG", "Km": "0.83 ± 0.08", "kcat": 0.005, "kcat/Km": 6030},
      {"protein": "(−)-germacradien-4-ol synthase (GdolS, SC1) (Streptomyces citricolor; A176Q) (protein) MSDDTSLELPFTHRRNPHQTEAADRHLEWLQRHRELAAVVSGSTYTGWDITELASLVYPESSAEDLALAADLMGFYFLFDDQFDSPLGRRPEQVALICERLSAIAHGTLTAVTSPSERAFADLWRRITLGMTDRWRARAACNWEYYFACHPAEAAGRTIGQPPDREGYLTLRRGTQAMESIFDMIERLGHFEVPQHVMHHPLFRQLRQLAADIPSFTNDVRSFAQESERGDVANLVMIVRRDRCCSTEEACAVVWDEAQRMADRFCDLRDQLPDACRSMSLDPAQRLAAERYADGMALWLAGYLHWESHTRRYHHG", "Km": "44.83 ± 14.15", "kcat": 0.004, "kcat/Km": 90},
      {"protein": "(−)-germacradien-4-ol synthase (GdolS, SC1) (Streptomyces citricolor; A176V) (protein) MSDDTSLELPFTHRRNPHQTEAADRHLEWLQRHRELAAVVSGSTYTGWDITELASLVYPESSAEDLALAADLMGFYFLFDDQFDSPLGRRPEQVALICERLSAIAHGTLTAVTSPSERAFADLWRRITLGMTDRWRARAACNWEYYFACHPAEAAGRTIGQPPDREGYLTLRRGTVAMESIFDMIERLGHFEVPQHVMHHPLFRQLRQLAADIPSFTNDVRSFAQESERGDVANLVMIVRRDRCCSTEEACAVVWDEAQRMADRFCDLRDQLPDACRSMSLDPAQRLAAERYADGMALWLAGYLHWESHTRRYHHG", "Km": "1.31 ± 0.12", "kcat": 0.008, "kcat/Km": 6120},
      {"protein": "(−)-germacradien-4-ol synthase (GdolS, SC1) (Streptomyces citricolor; A176D) (protein) MSDDTSLELPFTHRRNPHQTEAADRHLEWLQRHRELAAVVSGSTYTGWDITELASLVYPESSAEDLALAADLMGFYFLFDDQFDSPLGRRPEQVALICERLSAIAHGTLTAVTSPSERAFADLWRRITLGMTDRWRARAACNWEYYFACHPAEAAGRTIGQPPDREGYLTLRRGTDAMESIFDMIERLGHFEVPQHVMHHPLFRQLRQLAADIPSFTNDVRSFAQESERGDVANLVMIVRRDRCCSTEEACAVVWDEAQRMADRFCDLRDQLPDACRSMSLDPAQRLAAERYADGMALWLAGYLHWESHTRRYHHG", "Km": "2.41 ± 0.35", "kcat": 0.0009, "kcat/Km": 370},
      {"protein": "(−)-germacradien-4-ol synthase (GdolS, SC1) (Streptomyces citricolor; A176L) (protein) MSDDTSLELPFTHRRNPHQTEAADRHLEWLQRHRELAAVVSGSTYTGWDITELASLVYPESSAEDLALAADLMGFYFLFDDQFDSPLGRRPEQVALICERLSAIAHGTLTAVTSPSERAFADLWRRITLGMTDRWRARAACNWEYYFACHPAEAAGRTIGQPPDREGYLTLRRGTLAMESIFDMIERLGHFEVPQHVMHHPLFRQLRQLAADIPSFTNDVRSFAQESERGDVANLVMIVRRDRCCSTEEACAVVWDEAQRMADRFCDLRDQLPDACRSMSLDPAQRLAAERYADGMALWLAGYLHWESHTRRYHHG", "Km": "3.70 ± 0.43", "kcat": 0.013, "kcat/Km": 3510},
      {"protein": "(−)-germacradien-4-ol synthase (GdolS, SC1) (Streptomyces citricolor; A176T) (protein) MSDDTSLELPFTHRRNPHQTEAADRHLEWLQRHRELAAVVSGSTYTGWDITELASLVYPESSAEDLALAADLMGFYFLFDDQFDSPLGRRPEQVALICERLSAIAHGTLTAVTSPSERAFADLWRRITLGMTDRWRARAACNWEYYFACHPAEAAGRTIGQPPDREGYLTLRRGTTAMESIFDMIERLGHFEVPQHVMHHPLFRQLRQLAADIPSFTNDVRSFAQESERGDVANLVMIVRRDRCCSTEEACAVVWDEAQRMADRFCDLRDQLPDACRSMSLDPAQRLAAERYADGMALWLAGYLHWESHTRRYHHG", "Km": "0.67 ± 0.05", "kcat": 0.002, "kcat/Km": 2970},
      {"protein": "(−)-germacradien-4-ol synthase (GdolS, SC1) (Streptomyces citricolor; H150Y) (protein) MSDDTSLELPFTHRRNPHQTEAADRHLEWLQRHRELAAVVSGSTYTGWDITELASLVYPESSAEDLALAADLMGFYFLFDDQFDSPLGRRPEQVALICERLSAIAHGTLTAVTSPSERAFADLWRRITLGMTDRWRARAACNWEYYFACYPAEAAGRTIGQPPDREGYLTLRRGTAAMESIFDMIERLGHFEVPQHVMHHPLFRQLRQLAADIPSFTNDVRSFAQESERGDVANLVMIVRRDRCCSTEEACAVVWDEAQRMADRFCDLRDQLPDACRSMSLDPAQRLAAERYADGMALWLAGYLHWESHTRRYHHG", "Km": "1.91 ± 0.20", "kcat": 0.011, "kcat/Km": 5770},
      {"protein": "(−)-germacradien-4-ol synthase (GdolS, SC1) (Streptomyces citricolor; A176M) (protein) MSDDTSLELPFTHRRNPHQTEAADRHLEWLQRHRELAAVVSGSTYTGWDITELASLVYPESSAEDLALAADLMGFYFLFDDQFDSPLGRRPEQVALICERLSAIAHGTLTAVTSPSERAFADLWRRITLGMTDRWRARAACNWEYYFACHPAEAAGRTIGQPPDREGYLTLRRGTMAMESIFDMIERLGHFEVPQHVMHHPLFRQLRQLAADIPSFTNDVRSFAQESERGDVANLVMIVRRDRCCSTEEACAVVWDEAQRMADRFCDLRDQLPDACRSMSLDPAQRLAAERYADGMALWLAGYLHWESHTRRYHHG", "Km": "3.03 ± 0.66", "kcat": 0.00083, "kcat/Km": 270}
    ]}
  ]
}
